First the molecules themselves.
B1: TPR t1 (parent)
chain: GACCAAUCUGCCCUCAGAGCUCGAGAACAUCUUCGGAUGCAGAGGAGGCAGGCUUCGGUGGCGCGAUAGCGCCAACGUCCUCAACCUCCAAUGCAUCCCACCACAUGAUGAUGCCUGAAGAGCCUUGGUUUUUUG

The variants in this series derive from B1. Put plainly: polymerase ribozyme fitness, log enrichment relative to wild type (log ratio); higher = more active; in vitro selection for triplet polymerase activity. The procedure, abridged:
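Frozen incubation at −7 °C formed the core of a single, triplicate in vitro selection round applied to PCR-built, transcribed mutant libraries of each subunit of a heterodimeric triplet polymerase ribozyme. Extended constructs were gel-excised, captured with streptavidin beads and amplified by RT-PCR, and input and output libraries were Illumina-sequenced with a filter of ≥10 input reads and ≥1 read per output. Fitness is the logarithm of genotype enrichment relative to wild-type enrichment, with inverse-variance-weighted replicate averaging, and the logarithm is base 2.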
Regarding C72U U129G, the “polymerase ribozyme fitness (log ratio)” value was -1.46.
Turning to C76U A90G A105U, the “polymerase ribozyme fitness (log ratio)” value was -1.84.
In the case of C73G G120A, the “polymerase ribozyme fitness (log ratio)” value was -0.212.
For C72U C86A A90G G110A, the “polymerase ribozyme fitness (log ratio)” value is -1.38.
Regarding C73A C99U A119U U130A, the “polymerase ribozyme fitness (log ratio)” value is -4.24.
Regarding A75U C82G U96A C115G, the “polymerase ribozyme fitness (log ratio)” value is -3.29.
The value for C72A U130A was -0.443.
Take C72U C97U U106C A108G: the “polymerase ribozyme fitness (log ratio)” value was -6.08.
As to C73A C86U, the “polymerase ribozyme fitness (log ratio)” value came to 1.13.
With U78A G107C, the “polymerase ribozyme fitness (log ratio)” value is -6.06.
The value for U78A C123U was 1.1; that for G77U U78C A95U C123G was 0.706; that for C73A A84U C88A G110A C123A U126C was -4.76.
On to C72G C124U, for which the “polymerase ribozyme fitness (log ratio)” value was found to be 1.15.
The same measure for C73G G127A: -1.82; for C72U C102A: -1.81.
The same measure for C72U C102G: -5.51; for C72U C114U: -1.89; for C73A C86U A100U C102A: -2.87.
For the variant C72G C82A, the “polymerase ribozyme fitness (log ratio)” value was -1.18.
C72G C82G: the “polymerase ribozyme fitness (log ratio)” value was -1.
Take C72U A91G C104A G127C: the “polymerase ribozyme fitness (log ratio)” value is -4.76.
Take G77A C88G: the “polymerase ribozyme fitness (log ratio)” value is -0.754.
On to C72G U81C C101U, for which the “polymerase ribozyme fitness (log ratio)” value was -0.875.
For C73A C104U U130G U132C, the “polymerase ribozyme fitness (log ratio)” value was determined as 1.03.
On to C72G C86G A121U U125A G135U, for which the “polymerase ribozyme fitness (log ratio)” value was -2.76.
In the case of U78A G122A, the “polymerase ribozyme fitness (log ratio)” value was -1.42.
The value for C72G G77U C85U U106A U109A was -7.01.
Regarding C72U C101G G117U, the “polymerase ribozyme fitness (log ratio)” value was -3.6.
In the case of C76A A91G C115A, the “polymerase ribozyme fitness (log ratio)” value was -0.508.
As for C72U U87A, the “polymerase ribozyme fitness (log ratio)” value was -0.188.
Regarding A74U U87A, the “polymerase ribozyme fitness (log ratio)” value was -0.842.
The same measure for C76U G113U: -2.36; for A74U C104A C124G: 0.0488; for C73U G113A: -0.0568.
As to C73U C86A, the “polymerase ribozyme fitness (log ratio)” value was -0.276.
For C72U A74U U106A G127A, the “polymerase ribozyme fitness (log ratio)” value is -1.68.
In the case of C73A C85U U116G, the “polymerase ribozyme fitness (log ratio)” value was -2.18.
U78A C114A: the “polymerase ribozyme fitness (log ratio)” value is -1.63.
As to A75G C82U A121G C124G, the “polymerase ribozyme fitness (log ratio)” value worked out at 1.16.
As to C73G C102A, the “polymerase ribozyme fitness (log ratio)” value is -2.76.
With G77C C94U, the “polymerase ribozyme fitness (log ratio)” value was -0.725.
The same measure for C76G U81C C94A G117A: -2.22; for A74C C101U U132C: -0.834.
The value for C72G C80G U130C was -5.89; that for C72U C82G G110U was -2.93; that for C72U G110A was -1.45.
In the case of C72U G110U, the “polymerase ribozyme fitness (log ratio)” value was -1.17.
The value for C73U G120A was 0.593; that for C72U C79A A83G C115G C123A U131G was -4.99.
Regarding A74U U126G, the “polymerase ribozyme fitness (log ratio)” value was -1.89.
As for C73U C80A A90U U106A, the “polymerase ribozyme fitness (log ratio)” value is -5.89.
C73U U96C C99U: the “polymerase ribozyme fitness (log ratio)” value is -3.39.
As to C73U U106A, the “polymerase ribozyme fitness (log ratio)” value was -0.212.
As for C73U U87C C89G G120A, the “polymerase ribozyme fitness (log ratio)” value is -1.46.
As for C73U C89U C101U, the “polymerase ribozyme fitness (log ratio)” value was -0.461.
C72U C98U U116A: the “polymerase ribozyme fitness (log ratio)” value was -4.95.
For the variant G77A A83C C94U C115G U116C U125G, the “polymerase ribozyme fitness (log ratio)” value is -4.83.
For the variant C72G G107A, the “polymerase ribozyme fitness (log ratio)” value was -4.9.
The value for C72U U109A was -5.61; that for C73A C86U G128A was -1.81.
Take C76G A90C C101U: the “polymerase ribozyme fitness (log ratio)” value is -1.
Consider C72U C73U C88U G113U U125A, for which the “polymerase ribozyme fitness (log ratio)” value was -5.18.
As for C73U A75G G77A U109G, the “polymerase ribozyme fitness (log ratio)” value was -6.15.
On to C72G A95C, for which the “polymerase ribozyme fitness (log ratio)” value was -2.36.
For C72G C94U, the “polymerase ribozyme fitness (log ratio)” value was determined as 0.173.
A74U C114G C124A U125C: the “polymerase ribozyme fitness (log ratio)” value is -1.43.
Turning to A74G G77U C123U, the “polymerase ribozyme fitness (log ratio)” value came to 0.945.
The same measure for C73A U106G G110C: -4.6.
Turning to C73G U116C U131A, the “polymerase ribozyme fitness (log ratio)” value is -1.53.
Consider C73U C98A, for which the “polymerase ribozyme fitness (log ratio)” value is -4.94.
Regarding C72U C114U C123U U130A G135A, the “polymerase ribozyme fitness (log ratio)” value is -2.43.
The same measure for C76U A105C: -2.5.
For C76A G93C C94A U112G, the “polymerase ribozyme fitness (log ratio)” value was -4.68.
On to C76U U112A U116G, for which the “polymerase ribozyme fitness (log ratio)” value was -2.03.
The value for C73A U87A G120C C124A U132G was -4.42; that for C72G C82A C85A A95U was -4.18; that for C73U U87A A105U was -1.83.
Consider C73U C76G U112G, for which the “polymerase ribozyme fitness (log ratio)” value was -1.81.
The value for C72U A83U C98U was -0.271; that for C72U A83C C115G was -1.78; that for G77U C88G was -1.02.
For G77U A111U, the “polymerase ribozyme fitness (log ratio)” value is -3.23.

The values are drawn from the RNAGym collection of RNA variant scans (doi:10.1073/pnas.2313332121).
